Experimental data: article PMC5777823 (eLife, 2017)

Target: T1, CENP-L:CENP-N^230-C complex (human, UniProt Q8N0S6 1-344; Q96H22 230-339)
T1 construct: CENP-L, human; CENP-N, human, residues 230 to the C-terminus of the 339-residue protein; Form used in SEC and ITC, named without GST; tag probably cleaved with 3C protease; also called CENP-LN^230-C; CENP-LN^230-C dimer; source: Tnao38 insect cells (baculovirus, co-expressed), purified (GSH-Sepharose, Superdex 200)
Assay: ITC; 25°C, ITC200; 20 mM HEPES pH 7.5, 2.5% glycerol, 300 mM NaCl, 1 mM TCEP; protein in the cell at 5–8 µM, ligand at 50–80 µM; single site binding model
Conditions: both partners purified

T1 sequence (Q8N0S6 whole entry, chain 1 of 2, the tested form may be a part): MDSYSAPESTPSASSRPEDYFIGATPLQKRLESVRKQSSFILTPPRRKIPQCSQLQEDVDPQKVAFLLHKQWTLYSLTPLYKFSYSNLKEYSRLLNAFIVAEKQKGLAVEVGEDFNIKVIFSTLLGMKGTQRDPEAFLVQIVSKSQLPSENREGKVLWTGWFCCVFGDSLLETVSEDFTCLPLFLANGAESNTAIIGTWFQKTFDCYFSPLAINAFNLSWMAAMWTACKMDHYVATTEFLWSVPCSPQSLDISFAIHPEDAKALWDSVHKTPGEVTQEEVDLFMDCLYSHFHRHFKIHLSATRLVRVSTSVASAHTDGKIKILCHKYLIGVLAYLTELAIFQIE
T1 sequence (Q96H22 230-339, chain 2 of 2): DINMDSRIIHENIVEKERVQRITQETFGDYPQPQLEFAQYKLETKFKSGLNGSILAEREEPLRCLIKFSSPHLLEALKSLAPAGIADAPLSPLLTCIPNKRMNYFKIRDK

Kd: 1000 nM
B1: CENP-C^225-364 (domain or fragment, human, UniProt Q03188 225-364, looked up)
chain: SDEEDKTSEGQERKPSGSSQNRIRDSEYEIQRQAKKSFSTLFLETVKRKSESSPIVRHAATAPPHSCPPDDTKLIEDEFIIDESDQSFASRSWITIPRKAGSLKQRTISPAESTALLQGRKSREKHHNILPKTLANDKHS
notes: pGEX-6P-2rbs; named without GST in the assays; source: bacteria, purified as described (Klare et al., 2015)
